Data on two molecules can be found in paper PMC10215423, “The Diagnostic Potential of RNA Aptamers against the NS1 Protein of Dengue Virus Serotype 2”.

One may read the Kd as a measure of binding affinity in units of concentration.

For this data set, the target named is NS1 (dengue virus serotype 2) (Dengue virus serotype 2, UniProt P29990 776-1127). Nature of the data set: filter binding. The following applies: protein: commercial; chain copies: 2.
Chain of NS1 (dengue virus serotype 2) (P29990 776-1127): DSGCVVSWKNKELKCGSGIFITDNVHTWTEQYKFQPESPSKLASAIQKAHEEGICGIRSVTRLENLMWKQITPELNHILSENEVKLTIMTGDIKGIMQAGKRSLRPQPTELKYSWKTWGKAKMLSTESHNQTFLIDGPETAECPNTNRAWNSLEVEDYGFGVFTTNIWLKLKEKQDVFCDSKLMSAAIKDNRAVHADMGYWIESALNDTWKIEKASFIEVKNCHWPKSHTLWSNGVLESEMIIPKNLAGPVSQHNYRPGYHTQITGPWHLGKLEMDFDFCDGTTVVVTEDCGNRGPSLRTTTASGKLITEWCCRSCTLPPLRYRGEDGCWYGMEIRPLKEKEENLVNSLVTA

B1: DENV-3 (structured_RNA)
RNA: GGAGCUCAGCCUUCACUGCUUUGAUCUCGUGGGGGUGUGUCGCGGGAGACACCAUGGAAUAUAUGGCUGAUUUCAUGUGGGCACCACGGUCGGAUCCAC
Regarding B1, the affinity, expressed as Kd, was 37.6 ± 10.3 nM.

B2: DENV-6 (structured_RNA)
RNA: GGAGCUCAGCCUUCACUGCCGUAGUCGUAUCUCCAUUACCCAGAAUGGUGAUGCGCCGUGAAGAGCGGUUUAGGGAAUUGGCACCACGGUCGGAUCCAC
In turn, B2 displayed a Kd of 41.4 ± 9.29 nM.
